Publication PMC6179282

Columns and labels:
[1] = molecular target: Camelus dromedarius mu-class glutathione S-transferase (CdGSTM1) (Camelus dromedarius); assay: cross-linking; 0.25% glutaraldehyde, room temperature, 15 min, CdGSTM1 0.5 mg/mL at pH 4.0, before and after SEC; SDS-PAGE
[2] = molecular target: Camelus dromedarius mu-class glutathione S-transferase (CdGSTM1) (Camelus dromedarius); assay: cross-linking; 0.25% glutaraldehyde, room temperature, 15 min, CdGSTM1 0.5 mg/mL at pH 7.0, before and after SEC; SDS-PAGE
[3] = molecular target: Camelus dromedarius mu-class glutathione S-transferase (CdGSTM1) (Camelus dromedarius); assay: SEC; Superdex 200 Increase, 0.25 mg CdGSTM1 equilibrated at pH 4.0, buffer with 150 mM NaCl at pH 4.0
[4] = molecular target: Camelus dromedarius mu-class glutathione S-transferase (CdGSTM1) (Camelus dromedarius); assay: SEC; analytical Superdex 200 Increase 10/300 GL, calibrated; CdGSTM1 2.5 mg/mL (also 0.25 mg loaded) in 50 mM phosphate buffer, 150 mM NaCl, pH 7.0

Measured: stoichiometry N

Camelus dromedarius mu-class glutathione S-transferase (CdGSTM1) (enzyme)
2: [1] | [2] | [3] | [4]
